test: soluble fraction after stress (log2 fold change); higher = more stays soluble; pooled small domains, quantitative proteomics; details: stress: 50 degC
Outline: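 Each library was heated to 50°C as a stress step. The libraries, made up of small protein domains, were pooled and analysed at high throughput by quantitative proteomics. The reported value is the base-two logarithm of the fold change in each protein's soluble amount after stress, taken as a measure of aggregation propensity. The higher the value, the more protein stays in solution.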

Sequence | soluble fraction (log2)
HMDDHKQHLIDFYHSRKRMPTYTEMMALFGYKSKNAVARLVEKMIDAGIVTKDKLGKLLPTTLFDSVPL | 0.0577
HMRMLLKELLIQYEVKNDKSHVEVAKEVGVSLSTYYRWLNGESLHLKKRTIDRLSEVLHYDINQVVEES | -2.35
HMNPAYTDSRMKTFLEELPVMKASLSQKHVTRFLVWQEYIGRHPDGYGKSQFFYHLKQNLVAAKG | -0.56
HMKKILITGNSGYIGSHLSKMLENDYEVHGLDIRQPQHPVAKFYEQDINRPINIEEEYDAVIHLAALV | -0.196
HMDGVTEYTVKSGDSFSAIINKHYNVNYDEKLMQAVAAYNNIEDMNKLQLGQIIKLPPKEQLNL | 0.0199
HMEISNWLEEIGLSRYTETLSEFPLEDLVEFTDDDFKELGVLTPHRKKLLAAIATLNNDASSN | -0.255
HMADFIKEIKTNNPRQLLKSILSSFMPRALILELEMLLWNDLKSKPIGEWSNTQIENVGKLLNNWILKPAA | 0.0698
HMPASTSIPYSDFISRVESGDVQEAKIGESAITGTYKDGSQFKTVKPPTLDTNLMPTLIQNKVNVVGVEP | 0.18
HMRAMWENLFFQYKEGFLPEEYYKQGIATGIRLAGPKFVEMNIPMQKEFEDEVHRLLAEHEKSVK | -0.748
HMNKNQIGTNAGIVWKLLSDNVHWEYDKLKHASGLSDRDLNAAIGWLAREDKIDFDIDEQHDRLFL | -0.395
HMKTEKYIQVISGTVNVRSGPGTSYAEIAKIDASQIYVVTAKEGEWLKISLANGTIGYVAGWLVKEVTG | -0.186
HMPLDYQELRNISPQAARQAILQILKANKGNVSQTARMLGITRKTVYKAMAKREAGNLDDGSRAPK | -0.554
HMRVDLATEVHSVLRRMMSRPPTLQEIRADLDGEEPGRVHEALDALRAAFRGGRGPKNPYESLKRSLRRG | 0.0134
HMHKREKSFFETIYDDIPGIGKKRRVQLLSAYPTLDSLKSVTLEELKQIVPEESAKLILEKRDSR | 0.0407
HMRSSALDEIPGIGKQRKKNLLVHFTSVAKIKEASLDEIAAVPGMNRKAALVVVEFFQNQERE | -1.79
HMSVFGDNVARLRAEHGMSQRALAERLEITNGTVAAWESRDTLPDYDRIRQIAEIFDVPIPQLFAKYIP | -1.66
HMALTQEQLGQRLQDARKSVALTQQEVAEDLGLSRESLAQIEAGSRSVNSLEIVRLARLYGRSLSSILLE | -0.612
HMAIDYYQTLINLGYKLQDRGDYWQTSAIHRGGDNPTALQIYKNTGVWKDYVSGGGFKPFKALVEKSD | -0.802
HMFPQVEVQLIYSYKSDRILNKMLKEFNVVILNQVFKDDILTSFHMNYSLVNQLITKIKSYPDISYKIIN | -1.5
HMKDLTAIKGVGEFFAKKLSQAGYQSITNLTDVNAKRLQADTGIPLPIAARIIKEAQSLIAET | 0.206
HMRISMRDQVYEIIKNRILSREYSLGEPINIVHLSKELGISNTPIREALSQLETERLITINSNQKYHVT | -0.154
HMKSIRIPFILTEGPNSQKITIDIDSDEEFRIGDVFDEDDKLWSINQILISGDRKAKMAIASEVTSISALR | -2.39
HMNGGPHYLRDVRTSLGLSQADLAKAVGTSANMIHYLESGERALTLKWIRRISEALNVSPMRLIN | -1.6
HMRQNPESFLNHKVKKNESLESLTKKYELTENEIIFYNPLIQKIGLKKRMILKIPIYNNQNLVTKSVD | 0.256
HMDVLIQEIGKRLRIQRLAMGLTQEELAKRAGISLSTLKLMEQQGKGSLQRLAKVAVVLDLDGDLRGLF | -2.42
HMTVKKLTINEDNSGRRIDNYLLSIFNSLPRSKIYNIIRKGEVRVNSSRIKPNYRLEQGDLVRIPPNLEFT | 0.0953
HMEVPMELPRQLRANRERLGLSQEDVAHAIYVSRQTMSSWERGKTYPDVQSLMLLSHLFGISIDELVKGDV | -1.55
HMQISDNTILEDAVSRIIDENPKSVSDYFQGKEAVVGFFIGQIMRETKGTANPKIAREIVISHLEAI | -0.778

Sequence | soluble fraction (log2)
HMAVRTELLALPAGWHGDASRLSTALAALQGVREAVVIASEGVAYLKVHGHDWDRDGARELLQN | 0.00676
HMQQIEIEEPITVKNLSAVAGLKASEIIAKLMKLGVMSTINQVMERQHAEEIAGEYGFELVVK | 0.096
HMNIDGLIGKKALVTADIDNVNSKGQIKINGLEWTARSVDDEPIPMGTEVEITAISGVKAIVRKG | 0.168
HMVEAIDQALIEKQIQAVLQENSAAVKKYQAGKTEVLAFLIGQSMRKIAKKVDANLVKNILLEQLKNK | 0.0542
HMNSRTLAYSDFIRKVDKGEVSAVVIDGEQVQVQTKDGQTFVTIQPQSEQMNDKLVEQLIAKDISVKAERQ | 0.158
HMKNLTERQQQIIALISGNPLITRAEIASAIGFSVKTIERELSILSEIVSYVGSKKGGHWEIQT | -1.15
HMGHLTWTVTGIGHERRARTVAEQMSSVFGVLEARASSAGTVYLEFEREKIDEGGLEASLKRMGVTRVV | -1.71
HMYELDIYPNPAIDKINVLLPSSTTLPVKVEIYDIMGKKVNSLLTTKKAFTIETDQFEKGIYFVKA | 0.0213
HMDISKTLGKNPLLIIDNIEYRGKTLDEITAMTGVKRFENIDIYGSEEAMKTYGEKAKDGVIIAYTT | 0.0561
HMTEELLNQRKETMLALLNDPTYVPMKLKELAMLLNLSRDQRDELREVMESLEQDGKVILTKRGKYKIP | -0.269
HMQVSDVTELRTILEKVITENESVATEFKEGKDAAMNFLVGQGMKATRGAADPALLKEIITGIL | 0.0889
HMASIGTATVTADNLRLRSEAGTGAETLTMAPKGAEVTVEEDAGDGWYKVTYGDTEGYMSGEWLKITLA | -0.209
HMSSSYMVRITTSVLNVRKGPGTNYGITTKVKKGEVYTIVAEEKNGNTTWGKLKSGTGYISLGYTER | -1.29
HMGVGVKSTEVDYQRTSSGSDIPTDDAAWTKTIPAVKVNTFLWTRTKINYTDGTSAIFYSVGY | -0.281
HMTSLQDLLEELRVIRETLTGSQVLSDMQLFSQLRNLGDIKAALTRMQDNPAAARMVGEVDKLLETMFAS | -0.955
HMNKIGTIVSINGPIVKTAGDVGFVMHEMVYVGKEKLVGEVIGLTTDFTIVEVYEETSGIKPGETIEGT | -1.5
HMRSSAATMFGRIALKNKLVDEATLKKVMSELPAGADLGAVLVKQGLISEQHAEAIQKKITAHMKSAP | 0.273
HMQRQGTVATQQTPLNIRSQPSLSAQVIGQAPKGATVAILGESGDWYQIRYQNITGYSSKQYI | 0.145
HMSDGYETLVNMAKPFLNNSKQITENDITDAVNTVSVMLKKRYDMTDEDIRKAVSELLHFYA | -0.057
HMEPQLVKSFDVQTELTYDQFLSKYPESHTLGRLLVQPEPIPFEPYKNIPGITPEKLLALHAKHLEAR | 0.0728
HMEPEWVINTDGSNLNEILAIDEVDSRKTFSNDLQEVYRTFGIEAARQILVQEIDAVIESSGA | 0.199
HMNKMHKLPSVSEILNKVRLQKIHNESFIKFKIKEEIDRYRKLAKKDQLFLSRDEITYEIIEKLLNFSMPS | -2.57
HMDESLIEEAKAMILQMKIEGSVRVRSNGLLEFRNPLFGSVYGRSVEELQEKLNKKVREQKSRI | -0.0459
HMNQNAMIGAHIRNLRLAKKLTLKQLSDESGLSVGFLSQLERGMSSIAIDTLARLAHILGADLSSFF | -0.763
HMGDTIGEQKAKEIALEHAGLKSSDVTFIRAVLEYDDRNWEYDVEFYDADTYTEYDYEIDAHTGKILSFDH | 0.0993
HMKMVEIDYGKFLTMLDTGKVKSVEIENNRIAINPSSSKDKNIYITGRMDDPELVDRLKNAKVEFTKVIP | 0.261
HMQAKQVAIPDVANYSVTDAIKKLQDAGFIVSDEQREEANETVSEGKVSRTSPAAGSIRKEGTEIILYKSL | 0.198

— the domain aggregation screens of Martell et al. (2025)
